According to publication PMC9319256, “Human Enzyme PADI4 Binds to the Nuclear Carrier Importin α3” (Cells, 2022):

Legend:
Impα3 [1] = molecular target: T1, Impα3 (Homo sapiens, UniProt O00629); assay: Fluorescence titration of PADI4 with Impα3; format: binding; conditions: fluorescence at 330 nm; 3 µM PADI4, 0–25 µM importin; 20 mM Tris pH 7.5, 5 mM TCEP, 150 mM NaCl, 5% glycerol, 25 °C; titration repeated three times; ± fitting error
T1 construct: made in house
T1 sequence (O00629 1-521): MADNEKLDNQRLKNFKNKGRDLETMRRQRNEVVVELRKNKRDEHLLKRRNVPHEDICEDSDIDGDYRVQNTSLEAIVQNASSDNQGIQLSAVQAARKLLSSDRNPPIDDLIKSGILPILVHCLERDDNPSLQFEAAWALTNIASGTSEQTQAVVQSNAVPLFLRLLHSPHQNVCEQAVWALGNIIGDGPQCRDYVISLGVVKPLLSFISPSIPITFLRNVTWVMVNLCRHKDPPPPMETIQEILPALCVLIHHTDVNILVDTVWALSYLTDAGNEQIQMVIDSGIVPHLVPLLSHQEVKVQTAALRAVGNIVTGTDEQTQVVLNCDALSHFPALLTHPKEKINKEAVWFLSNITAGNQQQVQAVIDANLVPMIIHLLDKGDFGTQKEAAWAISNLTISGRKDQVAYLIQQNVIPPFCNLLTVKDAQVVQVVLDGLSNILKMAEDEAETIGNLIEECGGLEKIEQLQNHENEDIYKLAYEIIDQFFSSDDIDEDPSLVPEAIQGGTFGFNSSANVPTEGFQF
Method: (§1) For the titration between either Impα3 or ΔImpα3 and intact PADI4, increasing amounts of the corresponding importin species, in the concentration range 0–25 µM, were added to a solution with a fixed concentration of intact PADI4 (3 µM). Experiments were carried out in 20 mM Tris buffer (pH 7.5), 5 mM TCEP, 150 mM NaCl, and 5% glycerol at 25 °C (the storage buffer of PADI4). The experimental setup was the same as in the steady-state fluorescence experiments. Blank corrections containing the amount of each importin species were subtracted. Inner-filter effects were corrected. Each titration (Impα3 with PADI4 or ΔImpα3 with PADI4) was repeated three times, using new samples. In the three cases, the variations in the results were lower than 10%.
(§2) Handling and preparation of samples were the same described in Section 2.4.1. The dissociation constant of the corresponding complex, Kd, was calculated by fitting the binding isotherm to the general binding model, explicitly considering ligand depletion. […] Fitting to Equation (1) was carried out using KaleidaGraph (Synergy software, Reading, PA, USA).

ΔImpα3 [2] = assay: Fluorescence titration of PADI4 with ΔImpα3; format: binding, human; conditions: fluorescence at 330 nm; 3 µM PADI4, 0–25 µM importin; 20 mM Tris pH 7.5, 5 mM TCEP, 150 mM NaCl, 5% glycerol, 25 °C; titration repeated three times; ± fitting error
Method: as §1, §2

Impα3 [3] = molecular target: T1, Impα3; assay: Steady-state fluorescence, complex versus addition spectrum, Impα3; format: binding; conditions: 20 µM PADI4 or peptide, 2 µM Impα3; 50 mM sodium phosphate pH 7.0, 25 °C; excitation 280 or 295 nm; triplicates
Method: Spectra were collected on a Cary Varian spectrofluorometer (Agilent, Santa Clara, CA, USA), interfaced with a Peltier unit. Following the standard protocols used in our laboratories, the samples were prepared the day before and left overnight at 5 °C; before experiments, samples were left for 1 h at 25 °C, where experiments were acquired. A 1 cm pathlength quartz cell (Hellma, Kruibeke, Belgium) was used. The concentration of PADI4 or NLS1/2-PADI4 peptides was 20 µM, and that of each importin species was 2 µM. Samples containing the corresponding isolated peptides, the isolated PADI4, the isolated corresponding importin species, and the corresponding mixtures (at the concentrations indicated above) were prepared. Experiments were performed with samples in 50 mM sodium phosphate buffer, pH 7.0. Fluorescence experiments were repeated in triplicates with newly prepared samples. Variations of results among the experiments were lower than 5%.
Polypeptide samples were excited either at 280 or 295 nm (although NLS2-PADI4 has only a single […]). The other experimental parameters used in the experiments have been described elsewhere. Appropriate blank corrections were made in all spectra.

Impα3 [4] = molecular target: T1, Impα3; assay: Far-UV CD, complex versus addition spectrum, Impα3; format: binding; conditions: 25 °C; average of six scans
Description: Far-UV CD spectra were collected on a Jasco J810 spectropolarimeter (Jasco, Tokyo, Japan) interfaced with a Peltier unit. The instrument was periodically calibrated with (+)-10-camphorsulfonic acid. A cell of path length 0.1 cm was used (Hellma, Kruibeke, Belgium). All spectra were corrected by subtracting the corresponding baseline. Concentration of each polypeptide (importin species and either NLS1/2-PADI4 or PADI4) and the buffers were the same used in the fluorescence experiments (Section 2.4).
Isothermal wavelength spectra of each isolated macromolecule and that of the complex were acquired as an average of six scans, at a scan speed of 50 nm/min, with a response time of 2 s and a bandwidth of 1 nm. Handling and preparation of samples were the same described in Section 2.4.1.

Impα3 [5] = molecular target: T1, Impα3; assay: Isothermal titration calorimetry (ITC), Impα3; format: binding
Method: (§3) Calorimetric titrations for testing the interaction of PADI4, as well as for the interaction of NLS1/2-PADI4 peptides, with both importins, Impα3 and ΔImpα3, were carried out in an Auto-iTC200 automated high-sensitivity calorimeter (MicroCal, Malvern-Panalytical, Malvern, UK). Experiments were performed in 20 mM Tris buffer (pH 7.5), 5 mM TCEP, 150 mM NaCl, and 5% glycerol at 25 °C. PADI4 or the peptide solution (100 μM) in the injection syringe was titrated into the importin solution (10 μM) in the calorimetric cell. The remaining experimental and processing details have been described previously. Due to the presence of glycerol in solution, background injection (included as an adjustable parameter in data fitting) was rather large. The data analysis was conducted in Origin 7.0 (OriginLab, Northampton, MA, USA) with user-defined fitting functions.

ΔImpα3 [6] = assay: Isothermal titration calorimetry (ITC), ΔImpα3; format: binding, human
Method: as §3

[7] = Impα3, pH 7.5, 25 °C, 95% confidence interval in parentheses

Kd (Impα3 [1]): 3.9 ± 0.8 µM
Kd (ΔImpα3 [2]): 6 ± 1 µM
ΔG (Impα3 [5]; Impα3, pH 7.5, 25 °C): -30.5 kJ/mol
n (binding stoichiometry or percentage of binding-competent protein) (Impα3 [5]; [7]): 0.97 (0.94, 1.00)
ΔH (binding enthalpy) (Impα3 [5]; [7]): −65.5 (−72.0, −60.5) kcal/mol
Ka (association constant) (Impα3 [5]; PADI4 or peptide (100 μM) titrated into Impα3 (10 μM), 20 mM Tris pH 7.5, 5 mM TCEP, 150 mM NaCl, 5% glycerol, 25 °C, 95% confidence interval in parentheses): 2.1 (1.7, 2.5) 10^5 M^−1
Kd (Impα3 [5]; PADI4 or peptide (100 μM) titrated into Impα3 (10 μM), 20 mM Tris pH 7.5, 5 mM TCEP, 150 mM NaCl, 5% glycerol, 25 °C, 95% confidence interval in parentheses, read-out: Kd (dissociation constant)): 4.8 µM
Kd (ΔImpα3 [6]; PADI4 or peptide (100 μM) titrated into ΔImpα3 (10 μM), 20 mM Tris pH 7.5, 5 mM TCEP, 150 mM NaCl, 5% glycerol, 25 °C, 95% confidence interval in parentheses, read-out: Kd (dissociation constant)): 1.3 µM
Substance: PADI4: human peptidyl-arginine deiminase 4, intact protein, purified as previously described
change in fluorescence spectrum of complex versus addition spectrum (Impα3 [3]): a variation in the fluorescence intensity
change in far-UV CD spectrum of complex versus addition spectrum (Impα3 [4]): the addition spectrum was not very different from that of the complex
Ka (association constant) (ΔImpα3 [6]; PADI4 or peptide (100 μM) titrated into ΔImpα3 (10 μM), 20 mM Tris pH 7.5, 5 mM TCEP, 150 mM NaCl, 5% glycerol, 25 °C, 95% confidence interval in parentheses): 7.8 (7.3, 8.5) 10^5 M^−1
-TΔS (ΔImpα3 [6]; ΔImpα3, pH 7.5, 25 °C): -127 kJ/mol
ΔG (ΔImpα3 [6]; ΔImpα3, pH 7.5, 25 °C): -33.5 kJ/mol
